Source: the supplement of paper PMC9233669
Variants at the floor of the assay were thinned out.

Assays:
biotinyl-Phe-oxazolone = assay: self-aminoacylation, catalytic enhancement (BFO) (fold over background); higher = more active; k-Seq, kA / k0A0; sequences stand for … in GGGAAUGGAUCCACAUCUACGAAUUC…UUCACUGCAGACUUGACGAAGCUG
How it was run: (§1)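 The uncatalyzed rate is the low-activity peak of a bimodal Gaussian fit, and catalytic enhancement is median kA divided by it. The kA values came from pseudo-first-order fits, with 1000 bootstraps, of per-sequence fraction reacted measured by streptavidin capture, triplicate qPCR and Illumina sequencing. Mutagenized RNA pools with a 21-nt variable region (0.43 μM) were reacted with each biotinyl-aminoacyl-oxazolone at 2–1250 μM in 50 μL HEPES/NaCl/KCl/MgCl2/CaCl2 buffer with 5% acetonitrile, pH 6.9–7.0, for 90 minutes at room temperature.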

biotinyl-Ile-oxazolone = assay: self-aminoacylation, catalytic enhancement (BIO) (fold over background); higher = more active; k-Seq, kA / k0A0; sequences stand for … in GGGAAUGGAUCCACAUCUACGAAUUC…UUCACUGCAGACUUGACGAAGCUG
How it was run: as §1

biotinyl-Met-oxazolone = assay: self-aminoacylation, catalytic enhancement (BMO) (fold over background); higher = more active; k-Seq, kA / k0A0; sequences stand for … in GGGAAUGGAUCCACAUCUACGAAUUC…UUCACUGCAGACUUGACGAAGCUG
How it was run: as §1

biotinyl-Val-oxazolone = assay: self-aminoacylation, catalytic enhancement (BVO) (fold over background); higher = more active; k-Seq, kA / k0A0; sequences stand for … in GGGAAUGGAUCCACAUCUACGAAUUC…UUCACUGCAGACUUGACGAAGCUG
How it was run: as §1

biotinyl-Leu-oxazolone = assay: self-aminoacylation, catalytic enhancement (BLO) (fold over background); higher = more active; k-Seq, kA / k0A0; sequences stand for … in GGGAAUGGAUCCACAUCUACGAAUUC…UUCACUGCAGACUUGACGAAGCUG
How it was run: as §1

biotinyl-Trp-oxazolone = assay: self-aminoacylation, catalytic enhancement (BWO) (fold over background); higher = more active; k-Seq, kA / k0A0; sequences stand for … in GGGAAUGGAUCCACAUCUACGAAUUC…UUCACUGCAGACUUGACGAAGCUG
How it was run: as §1

Row | Sequence | self-aminoacylation (biotinyl-Phe-oxazolone) | self-aminoacylation (biotinyl-Ile-oxazolone) | self-aminoacylation (biotinyl-Met-oxazolone) | self-aminoacylation (biotinyl-Val-oxazolone) | self-aminoacylation (biotinyl-Leu-oxazolone) | self-aminoacylation (biotinyl-Trp-oxazolone)
1 | AUUCGCCUUGGUCAUCGGGUG [Fam2.2 aminoacylation ribozyme variant] | 74.5 | 5 | 8.81 | 6.21 | 9.99 | 8.13
2 | AUUCGCGUAGGUCAUCGGGUG [Fam2.2 aminoacylation ribozyme variant] | 57.5 | 5.25 | 8.32 | 4.87 | 8.56 | 7.24
3 | AUUCGUCUAGGUCAUCGGGUG [Fam2.2 aminoacylation ribozyme variant] | 43.2 | 4.9 | 4.96 | 4.85 | 5.27 | 6.11
4 | AUUCUCCUACGUCAUCGGGUG [Fam2.2 aminoacylation ribozyme variant] | 57.3 | 4.89 | 6.97 | 5.36 | 9.67 | 6.69
5 | AUUCUCCUAGAUCAUCGGGUG [Fam2.2 aminoacylation ribozyme variant] | 34.7 | 3.28 | 4.32 | 2.68 | 5.3 | 4.66
6 | AUUCUCCUAGGUCAUCUGGUG [Fam2.2 aminoacylation ribozyme variant] | 30 | 3.03 | 4.5 | 2.91 | 5.43 | 4.16
7 | AUUCUUCAAACAAUCGGUCUG [Fam1A.1 aminoacylation ribozyme variant] | 1.66 | 0.672 | 0.63 | 0.663 | 0.682 | 1.27
8 | AUUGACCCAGGUCAUCGGGUG [Fam2.2 aminoacylation ribozyme variant] | 34.9 | 3.6 | 4.74 | 3.31 | 6.54 | 5.64
9 | AUUGACCUAAGUCAUCGGGUG [Fam2.2 aminoacylation ribozyme variant] | 56.8 | 5.64 | 7.6 | 5.26 | 12.1 | 9.4
10 | AUUGACCUAGGACAUCGGGUG [Fam2.2 aminoacylation ribozyme variant] | 19.3 | 3.72 | 4.19 | 3.53 | 4.56 | 4.97
11 | AUUGACCUAGGUAAUCGGGUG [Fam2.2 aminoacylation ribozyme variant] | 15 | 3.19 | 2.92 | 3 | 3.86 | 3.73
12 | AUUGACCUAGGUCAUAGGGUG [Fam2.2 aminoacylation ribozyme variant] | 1.72 | 1.58 | 1.27 | 1.46 | 1.61 | 1.81
13 | AUUGACCUAGGUCAUCCGGUG [Fam2.2 aminoacylation ribozyme variant] | 28.3 | 3.31 | 4.88 | 3.31 | 4.69 | 5.12
14 | AUUGACCUAGGUCAUCGGGUA [Fam2.2 aminoacylation ribozyme variant] | 355 | 20.4 | 47.1 | 16.7 | 59.5 | 31.5
15 | AUUGACCUAGGUCAUCGUGUG [Fam2.2 aminoacylation ribozyme variant] | 4.26 | 1.36 | 1.04 | 1.18 | 1.36 | 1.35
16 | AUUGACCUAUGUCAUCGGGUG [Fam2.2 aminoacylation ribozyme variant] | 28.4 | 3.81 | 5.68 | 3.64 | 7.74 | 5.17
17 | AUUGAUCUAGGUCAUCGGGUG [Fam2.2 aminoacylation ribozyme variant] | 35.2 | 4.45 | 6.53 | 3.8 | 7.89 | 7.06
18 | AUUGCACUGGUCAUCGAGUGA [Fam2.1 aminoacylation ribozyme variant] | 32.7 | 3.68 | 6.01 | 3.93 | 6.88 | 6.67
19 | AUUGCCCCGGUCAUCGAGUGA [Fam2.1 aminoacylation ribozyme variant] | 37.5 | 2.79 | 5.22 | 3.18 | 6.75 | 6.57
20 | AUUGCCCUGGGCAUCGAGUGA [Fam2.1 aminoacylation ribozyme variant] | 44.5 | 2.96 | 6.92 | 3.27 | 8.04 | 7.29
21 | AUUGCCCUGGUAAUCGAGUGA [Fam2.1 aminoacylation ribozyme variant] | 56 | 3.71 | 8.63 | 3.92 | 7.99 | 9.18
22 | AUUGCCCUGGUCAUCGACUGA [Fam2.1 aminoacylation ribozyme variant] | 1.08 | 0.899 | 0.941 | 0.951 | 0.735 | 1.35
23 | AUUGCCCUGGUCAUCGAGAGA [Fam2.1 aminoacylation ribozyme variant] | 1.73 | 1.2 | 1.39 | 1.2 | 1.5 | 0.807
24 | AUUGCCCUGGUCAUCGAGUAA [Fam2.1 aminoacylation ribozyme variant] | 28.4 | 3.56 | 8.54 | 4.02 | 8.75 | 8.07
25 | AUUGCCGUGGUCAUCGAGUGA [Fam2.1 aminoacylation ribozyme variant] | 33.7 | 2.89 | 4.92 | 3.45 | 6.18 | 5.71
26 | AUUUAACUAGGUCAUCGGGUG [Fam2.2 aminoacylation ribozyme variant] | 31.4 | 2.6 | 4.3 | 2.72 | 5.03 | 3.75

Row | Sequence | self-aminoacylation (biotinyl-Phe-oxazolone) | self-aminoacylation (biotinyl-Ile-oxazolone) | self-aminoacylation (biotinyl-Met-oxazolone) | self-aminoacylation (biotinyl-Val-oxazolone) | self-aminoacylation (biotinyl-Leu-oxazolone) | self-aminoacylation (biotinyl-Trp-oxazolone)
27 | AUUUACCUACGUCAUCGGGUG [Fam2.2 aminoacylation ribozyme variant] | 32.2 | 2.56 | 4.54 | 3.17 | 6.25 | 4.65
28 | AUUUACCUAGGUCAUCGGGUG [Fam2.2 aminoacylation ribozyme variant] | 235 | 18.3 | 33.2 | 15.4 | 45 | 26.1
29 | AUUUACCUAGGUCAUCUGGUG [Fam2.2 aminoacylation ribozyme variant] | 16.8 | 2.15 | 2.73 | 1.95 | 3.75 | 3
30 | AUUUACCUAGGUCAUUGGGUG [Fam2.2 aminoacylation ribozyme variant] | 19.7 | 2.34 | 3.54 | 2.26 | 3.79 | 3.11
31 | AUUUACCUGGUCAUCGAGUGA [Fam2.1 aminoacylation ribozyme variant] | 8.89 | 4 | 7.97 | 4.29 | 7.77 | 8.91
32 | AUUUACCUUGGUCAUCGGGUG [Fam2.2 aminoacylation ribozyme variant] | 45.7 | 4.48 | 7.16 | 4.81 | 8.83 | 6.6
33 | AUUUACUUAGGUCAUCGGGUG [Fam2.2 aminoacylation ribozyme variant] | 32.2 | 2.91 | 4.85 | 3.18 | 5.78 | 4.45
34 | AUUUAGCUAGGUCAUCGGGUG [Fam2.2 aminoacylation ribozyme variant] | 50.1 | 3.83 | 4.72 | 4 | 5.39 | 6.01
35 | AUUUAUCUAGGUCAUCGGGUG [Fam2.2 aminoacylation ribozyme variant] | 20.1 | 3.08 | 3.91 | 2.45 | 4.97 | 4.3
36 | AUUUCCAUGGUCAUCGAGUGA [Fam2.1 aminoacylation ribozyme variant] | 52.5 | 5.22 | 9.56 | 5.09 | 9.67 | 12
37 | AUUUCCCGGGUCAUCGAGUGA [Fam2.1 aminoacylation ribozyme variant] | 45.6 | 3.37 | 5.43 | 3.93 | 6.51 | 6.24
38 | AUUUCCCUAGUCAUCGAGUGA [Fam2.1 aminoacylation ribozyme variant] | 31.5 | 3.46 | 6.04 | 4.03 | 6.58 | 7.31
39 | AUUUCCCUCGUCAUCGAGUGA [Fam2.1 aminoacylation ribozyme variant] | 21.2 | 2.5 | 3.39 | 2.6 | 3.93 | 4.57
40 | AUUUCCCUGGUAAUCGAGUGA [Fam2.1 aminoacylation ribozyme variant] | 57.7 | 3.84 | 7.89 | 4.01 | 8.19 | 9.31
41 | AUUUCCCUGGUCACCGAGUGA [Fam2.1 aminoacylation ribozyme variant] | 66.2 | 3.79 | 8.77 | 4.43 | 8.24 | 9.27
42 | AUUUCCCUGGUCAUCCAGUGA [Fam2.1 aminoacylation ribozyme variant] | 55.4 | 4.3 | 7.52 | 4.5 | 8.35 | 9.93
43 | AUUUCCCUGGUCAUCGAGAGA [Fam2.1 aminoacylation ribozyme variant] | 1.31 | 1.2 | 0.896 | 1.27 | 1.1 | 0.74
44 | AUUUCCCUGGUCAUCGAGGGA [Fam2.1 aminoacylation ribozyme variant] | 1.28 | 1.47 | 1.44 | 1.59 | 1.83 | 1.65
45 | AUUUCCCUGGUCAUCGAGUGG [Fam2.1 aminoacylation ribozyme variant] | 12 | 3.66 | 7.95 | 3.99 | 8.26 | 7.09
46 | AUUUCCCUGGUCAUCGAGUGU [Fam2.1 aminoacylation ribozyme variant] | 26.8 | 6.35 | 14.9 | 7.71 | 14.6 | 12.4
47 | AUUUCCCUGGUCAUCGCGUGA [Fam2.1 aminoacylation ribozyme variant] | 157 | 9.18 | 18.9 | 10.4 | 20.9 | 22.5
48 | AUUUCCCUGGUCAUCGGGUGA [Fam2.1 aminoacylation ribozyme variant] | 90.8 | 10.1 | 18.5 | 11.6 | 21.5 | 23.9
49 | AUUUCCCUGGUCCUCGAGUGA [Fam2.1 aminoacylation ribozyme variant] | 23.5 | 2.08 | 3.79 | 1.93 | 3.67 | 3.91
50 | AUUUCCCUGGUUAUCGAGUGA [Fam2.1 aminoacylation ribozyme variant] | 58.2 | 4.12 | 9.01 | 4.39 | 8.65 | 10.9
51 | AUUUUCCUGGUCAUCGAGUGA [Fam2.1 aminoacylation ribozyme variant] | 10.8 | 4.2 | 8.02 | 4.13 | 8.6 | 9.4
